Consider one protein from patent US20200207829.

The target of one data set is T1, TMt-NLS-dCas9VP64.
T1 chain: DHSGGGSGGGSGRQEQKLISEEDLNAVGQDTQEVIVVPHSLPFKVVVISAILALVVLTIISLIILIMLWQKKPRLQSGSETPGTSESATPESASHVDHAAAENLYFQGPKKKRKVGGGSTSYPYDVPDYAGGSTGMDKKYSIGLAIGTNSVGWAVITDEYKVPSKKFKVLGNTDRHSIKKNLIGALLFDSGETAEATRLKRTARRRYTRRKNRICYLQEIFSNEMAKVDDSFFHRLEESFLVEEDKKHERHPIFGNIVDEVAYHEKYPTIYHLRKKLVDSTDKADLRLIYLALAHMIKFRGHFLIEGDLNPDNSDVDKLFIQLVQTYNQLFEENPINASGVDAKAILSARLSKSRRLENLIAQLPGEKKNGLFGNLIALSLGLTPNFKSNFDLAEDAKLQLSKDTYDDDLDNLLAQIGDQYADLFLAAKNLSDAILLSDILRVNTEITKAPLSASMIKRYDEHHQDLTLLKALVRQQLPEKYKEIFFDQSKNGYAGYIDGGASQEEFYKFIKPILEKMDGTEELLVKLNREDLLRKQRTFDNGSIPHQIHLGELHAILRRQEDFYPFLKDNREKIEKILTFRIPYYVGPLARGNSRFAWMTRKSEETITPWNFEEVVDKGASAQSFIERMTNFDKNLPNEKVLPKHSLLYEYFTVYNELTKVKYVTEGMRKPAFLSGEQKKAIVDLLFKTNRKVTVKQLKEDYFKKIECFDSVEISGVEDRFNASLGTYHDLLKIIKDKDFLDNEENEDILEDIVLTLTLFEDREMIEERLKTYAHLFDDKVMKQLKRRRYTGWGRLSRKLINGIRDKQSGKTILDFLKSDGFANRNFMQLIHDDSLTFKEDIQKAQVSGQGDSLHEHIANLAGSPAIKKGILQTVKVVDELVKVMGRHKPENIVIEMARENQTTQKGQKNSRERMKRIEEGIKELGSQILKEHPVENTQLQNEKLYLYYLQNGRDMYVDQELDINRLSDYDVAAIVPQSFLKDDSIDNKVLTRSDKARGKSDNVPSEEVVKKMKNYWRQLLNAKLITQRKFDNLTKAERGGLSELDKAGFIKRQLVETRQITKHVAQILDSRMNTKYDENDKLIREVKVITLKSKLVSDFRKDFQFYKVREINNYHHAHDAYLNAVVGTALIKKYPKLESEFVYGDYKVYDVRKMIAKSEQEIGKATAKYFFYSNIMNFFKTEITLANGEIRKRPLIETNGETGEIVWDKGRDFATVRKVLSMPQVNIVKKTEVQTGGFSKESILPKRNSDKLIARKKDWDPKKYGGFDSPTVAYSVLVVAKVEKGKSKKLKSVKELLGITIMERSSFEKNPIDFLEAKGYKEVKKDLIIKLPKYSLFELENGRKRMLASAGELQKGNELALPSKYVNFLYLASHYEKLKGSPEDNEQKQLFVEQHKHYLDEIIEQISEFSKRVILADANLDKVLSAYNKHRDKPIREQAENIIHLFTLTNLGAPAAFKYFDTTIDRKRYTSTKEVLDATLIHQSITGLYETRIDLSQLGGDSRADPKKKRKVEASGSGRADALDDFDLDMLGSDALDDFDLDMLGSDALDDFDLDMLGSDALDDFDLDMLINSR

B1: TEV protease (protein)
chain: MHHHHHHHHHGESLFKGPRDYNPISSTICHLTNESDGHTTSLYGIGFGPFIITNKHLFRRNNGTLLVQSLHGVFKVKNTTTLQQHLIDGRDMIIIRMPKDFPPFPQKLKFREPQREERICLVTTNFQTKSMSSMVSDTSCTFPSSDGIFWKHWIQTKDGQCGSPLVSTRDGFIVGIHSASNFTNTNNYFTSVPKNFMELLTNQEAQQWVSGWRLNADSVLWGGHKVFMVKPEEPFQPVKEATQLMNRRRRP
B1: the “anti-HA immunofluorescence, localisation of dCas9-VP64” value with TMt-NLS-dCas9VP64 was “co-expression of TEV protease resulted in highly efficient release of dCas9-VP64 from the membrane tether and subsequent nuclear localization”. The EYFP activation score entry with TMt-NESΔTCS-dCas9VP64 is “did not show any activity above baseline levels”.
